In PMC9482650, “Quantitative fragmentomics allow affinity mapping of interactomes” (Nature Communications, 2022):

Legend:
Assay in all cases: holdup assay
Parameters in all cases: key: below the threshold = too weak to quantify, mostly under pKd 3.1 to 4
GRIP1_4, Q9Y3R0 = target: T1, GRIP1_4, Q9Y3R0
T1 sequence (Q9Y3R0 467-571, limits assumed, looked up): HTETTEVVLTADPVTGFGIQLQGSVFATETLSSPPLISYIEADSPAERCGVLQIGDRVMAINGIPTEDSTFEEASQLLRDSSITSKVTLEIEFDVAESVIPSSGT

SIPA1L2, Q9P2F8 = target: T2, SIPA1L2, Q9P2F8
T2 sequence (Q9P2F8 945-1036, limits assumed, looked up): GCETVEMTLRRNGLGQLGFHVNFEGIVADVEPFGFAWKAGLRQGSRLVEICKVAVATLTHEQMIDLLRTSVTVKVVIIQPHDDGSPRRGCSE

Inadl_5, Q8NI35 = target: Inadl_5, Q8NI35
TJP3_3, O95049 = target: T3, TJP3_3, O95049
T3 sequence (O95049 375-456, limits assumed, looked up): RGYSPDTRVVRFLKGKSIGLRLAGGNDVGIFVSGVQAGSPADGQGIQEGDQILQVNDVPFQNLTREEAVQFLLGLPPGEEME

FRMPD4, Q14CM0 = target: FRMPD4, Q14CM0
FRMPD2_3, Q68DX3 = target: FRMPD2_3, Q68DX3
HTRA3, P83110 = target: T4, HTRA3, P83110
T4 sequence (P83110 354-453, limits assumed, looked up): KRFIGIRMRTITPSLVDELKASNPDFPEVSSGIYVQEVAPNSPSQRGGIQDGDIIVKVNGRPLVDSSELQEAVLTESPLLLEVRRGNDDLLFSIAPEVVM

TJP1_3, Q07157 = target: TJP1_3, Q07157
DLG3_2, Q92796 = target: T5, DLG3_2, Q92796
T5 sequence (Q92796 221-321, limits assumed, looked up): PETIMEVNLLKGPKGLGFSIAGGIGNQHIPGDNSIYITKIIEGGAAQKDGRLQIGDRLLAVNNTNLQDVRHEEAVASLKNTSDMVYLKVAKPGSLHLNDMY

FRMPD1, Q5SYB0 = target: T6, FRMPD1, Q5SYB0
T6 sequence (Q5SYB0 52-145, limits assumed, looked up): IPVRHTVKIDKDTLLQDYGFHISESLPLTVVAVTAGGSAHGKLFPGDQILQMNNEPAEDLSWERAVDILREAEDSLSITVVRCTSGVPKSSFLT

NHERF4_4, Q86UT5 = target: NHERF4_4, Q86UT5
MAGI2_6, Q86UL8 = target: MAGI2_6, Q86UL8
LIMK2, P53671 = target: LIMK2, P53671
LNX1_2, Q8TBB1 = target: LNX1_2, Q8TBB1
Inadl_3, Q8NI35 = target: Inadl_3, Q8NI35
HTRA2, O43464 = target: HTRA2, O43464
PDZD2_2, O15018 = target: T7, PDZD2_2, O15018
T7 sequence (O15018 329-429, limits assumed, looked up): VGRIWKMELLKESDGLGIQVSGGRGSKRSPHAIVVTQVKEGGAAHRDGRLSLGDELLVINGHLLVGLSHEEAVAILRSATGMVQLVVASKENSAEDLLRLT

SNTG2, Q9NY99 = target: T8, SNTG2, Q9NY99
T8 sequence (Q9NY99 68-166, limits assumed, looked up): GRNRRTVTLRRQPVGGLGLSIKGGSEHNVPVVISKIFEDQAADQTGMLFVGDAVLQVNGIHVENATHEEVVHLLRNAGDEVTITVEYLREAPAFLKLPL

GRIP1_5, Q9Y3R0 = target: T9, GRIP1_5, Q9Y3R0
T9 sequence (Q9Y3R0 568-668, limits assumed, looked up): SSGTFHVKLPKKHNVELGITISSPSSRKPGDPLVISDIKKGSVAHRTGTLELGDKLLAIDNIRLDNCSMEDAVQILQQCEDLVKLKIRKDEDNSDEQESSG

HTRA1, Q92743 = target: HTRA1, Q92743
IL16_3, Q14005 = target: IL16_3, Q14005
APBA3_1, O96018 = target: T10, APBA3_1, O96018
T10 sequence (O96018 389-490, limits assumed, looked up): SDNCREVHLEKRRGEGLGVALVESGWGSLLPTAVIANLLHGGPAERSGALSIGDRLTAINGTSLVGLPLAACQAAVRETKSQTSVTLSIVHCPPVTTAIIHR

GRIP2_7, Q9C0E4 = target: GRIP2_7, Q9C0E4
PDZD7_3, Q9H5P4 = target: T11, PDZD7_3, Q9H5P4
T11 sequence (Q9H5P4 857-944, limits assumed, looked up): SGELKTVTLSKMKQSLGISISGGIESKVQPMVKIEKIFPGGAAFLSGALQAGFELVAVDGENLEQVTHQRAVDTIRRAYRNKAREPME

MAGI2_2, Q86UL8 = target: MAGI2_2, Q86UL8
GORASP1, Q9BQQ3 = target: GORASP1, Q9BQQ3
[1] = plain residues with an end cap or a label only (N-terminal biotin on a linker: ado-ado)
[2] = plain residues with an end cap or a label only (N-terminal biotin on a linker: ttds)

Measured: pKd

FRMPD2_3, Q68DX3, sequence (Q68DX3 1073-1166): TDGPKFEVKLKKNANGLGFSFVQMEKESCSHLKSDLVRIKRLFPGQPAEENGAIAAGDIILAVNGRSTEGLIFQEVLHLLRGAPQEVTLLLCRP
TJP1_3, Q07157, sequence (Q07157 416-512): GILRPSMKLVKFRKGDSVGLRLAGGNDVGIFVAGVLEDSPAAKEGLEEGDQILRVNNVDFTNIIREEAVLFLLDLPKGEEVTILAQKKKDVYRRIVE
MAGI2_6, Q86UL8, sequence (Q86UL8 1141-1229): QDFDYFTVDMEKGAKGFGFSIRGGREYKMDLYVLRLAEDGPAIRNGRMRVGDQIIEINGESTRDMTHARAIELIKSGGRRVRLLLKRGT
FRMPD4, Q14CM0, sequence (Q14CM0 67-160): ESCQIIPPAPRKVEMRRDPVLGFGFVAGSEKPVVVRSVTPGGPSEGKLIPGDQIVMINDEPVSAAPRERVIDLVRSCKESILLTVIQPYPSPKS
MAGI2_2, Q86UL8, sequence (Q86UL8 410-522): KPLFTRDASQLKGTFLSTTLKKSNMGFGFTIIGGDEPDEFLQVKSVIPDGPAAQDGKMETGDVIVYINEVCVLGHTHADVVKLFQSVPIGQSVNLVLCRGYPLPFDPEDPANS
HTRA1, Q92743, sequence (Q92743 360-477): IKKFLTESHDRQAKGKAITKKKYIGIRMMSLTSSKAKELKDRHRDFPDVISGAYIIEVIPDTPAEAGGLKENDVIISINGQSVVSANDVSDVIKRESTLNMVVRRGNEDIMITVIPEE
HTRA2, O43464, sequence (O43464 355-458): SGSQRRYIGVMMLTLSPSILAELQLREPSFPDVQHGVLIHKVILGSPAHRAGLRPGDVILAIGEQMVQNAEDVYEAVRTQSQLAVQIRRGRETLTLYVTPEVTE
GRIP2_7, Q9C0E4, sequence (Q9C0E4 934-1023): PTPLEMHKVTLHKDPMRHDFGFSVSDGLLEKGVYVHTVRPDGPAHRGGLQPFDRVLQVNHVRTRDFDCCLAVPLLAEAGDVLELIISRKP
GORASP1, Q9BQQ3, sequence (Q9BQQ3 1-208): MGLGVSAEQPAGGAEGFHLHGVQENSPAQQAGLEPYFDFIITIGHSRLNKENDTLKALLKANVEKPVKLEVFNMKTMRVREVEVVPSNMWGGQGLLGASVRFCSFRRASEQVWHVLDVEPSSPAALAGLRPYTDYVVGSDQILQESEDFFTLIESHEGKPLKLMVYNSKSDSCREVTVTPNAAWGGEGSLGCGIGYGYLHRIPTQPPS
Inadl_3, Q8NI35, sequence (Q8NI35 359-469): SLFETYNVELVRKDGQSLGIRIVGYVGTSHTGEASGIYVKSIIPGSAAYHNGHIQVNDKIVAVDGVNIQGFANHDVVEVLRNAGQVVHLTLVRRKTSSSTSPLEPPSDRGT
Inadl_5, Q8NI35, sequence (Q8NI35 673-780): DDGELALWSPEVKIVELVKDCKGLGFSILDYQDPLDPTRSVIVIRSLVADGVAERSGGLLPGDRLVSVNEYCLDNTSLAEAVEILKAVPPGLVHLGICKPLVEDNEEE
IL16_3, Q14005, sequence (Q14005 1107-1207): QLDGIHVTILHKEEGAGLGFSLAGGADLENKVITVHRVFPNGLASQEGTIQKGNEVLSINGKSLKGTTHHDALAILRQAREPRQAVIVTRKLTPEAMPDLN
LNX1_2, Q8TBB1, sequence (Q8TBB1 371-470): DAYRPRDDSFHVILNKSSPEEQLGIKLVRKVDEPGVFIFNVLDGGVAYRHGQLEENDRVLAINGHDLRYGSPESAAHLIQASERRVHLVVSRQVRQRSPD
NHERF4_4, Q86UT5, sequence (Q86UT5 464-550): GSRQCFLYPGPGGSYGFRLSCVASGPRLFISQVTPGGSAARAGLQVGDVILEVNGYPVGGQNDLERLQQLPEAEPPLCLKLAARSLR
LIMK2, P53671, sequence (P53671 143-248): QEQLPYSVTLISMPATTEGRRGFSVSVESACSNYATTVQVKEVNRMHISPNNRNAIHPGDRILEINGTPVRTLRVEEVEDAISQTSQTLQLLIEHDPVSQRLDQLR

B1: EPHA7, Q15375 (peptide)
chain: LHLHGTGIQV
4.36: HTRA1, Q92743; [1]
3.51: MAGI2_2, Q86UL8; [1]
3.58: HTRA3, P83110; [1]
3.55: Inadl_3, Q8NI35; [1]
4.23: GORASP1, Q9BQQ3; [1]
3.82: GRIP2_7, Q9C0E4; [1]
4.37: LNX1_2, Q8TBB1; [1]
4.04: Inadl_5, Q8NI35; [1]
3.97: FRMPD4, Q14CM0; [1]
below the threshold: GRIP1_4, Q9Y3R0; [1] | SIPA1L2, Q9P2F8; [1] | TJP3_3, O95049; [1] | FRMPD2_3, Q68DX3; [1] | TJP1_3, Q07157; [1] | DLG3_2, Q92796; [1] | FRMPD1, Q5SYB0; [1] | MAGI2_6, Q86UL8; [1] | LIMK2, P53671; [1] | HTRA2, O43464; [1] | PDZD2_2, O15018; [1] | SNTG2, Q9NY99; [1] | GRIP1_5, Q9Y3R0; [1] | IL16_3, Q14005; [1] | APBA3_1, O96018; [1] | PDZD7_3, Q9H5P4; [1]
4.07: NHERF4_4, Q86UT5; [1]

B2: NCBP2L, A6PVI3 (peptide)
chain: RGGFGRQTQI
3.76: PDZD2_2, O15018; [1]
3.52: SNTG2, Q9NY99; [1]
3.78: MAGI2_6, Q86UL8; [1]
3.53: GORASP1, Q9BQQ3; [1]
below the threshold: GRIP1_4, Q9Y3R0; [1] | SIPA1L2, Q9P2F8; [1] | Inadl_5, Q8NI35; [1] | TJP3_3, O95049; [1] | FRMPD4, Q14CM0; [1] | FRMPD2_3, Q68DX3; [1] | HTRA3, P83110; [1] | TJP1_3, Q07157; [1] | FRMPD1, Q5SYB0; [1] | NHERF4_4, Q86UT5; [1] | LIMK2, P53671; [1] | LNX1_2, Q8TBB1; [1] | Inadl_3, Q8NI35; [1] | HTRA2, O43464; [1] | GRIP1_5, Q9Y3R0; [1] | HTRA1, Q92743; [1] | IL16_3, Q14005; [1] | APBA3_1, O96018; [1] | GRIP2_7, Q9C0E4; [1]
4.38: PDZD7_3, Q9H5P4; [1]
4.48: MAGI2_2, Q86UL8; [1]
4.68: DLG3_2, Q92796; [1]

B3: CBP, Q92793 (peptide)
chain: TGDTLEKFVEGL
below the threshold: GRIP1_4, Q9Y3R0; [2] | SIPA1L2, Q9P2F8; [2] | Inadl_5, Q8NI35; [2] | TJP3_3, O95049; [2] | FRMPD4, Q14CM0; [2] | FRMPD2_3, Q68DX3; [2] | HTRA3, P83110; [2] | TJP1_3, Q07157; [2] | DLG3_2, Q92796; [2] | FRMPD1, Q5SYB0; [2] | NHERF4_4, Q86UT5; [2] | MAGI2_6, Q86UL8; [2] | LIMK2, P53671; [2] | LNX1_2, Q8TBB1; [2] | Inadl_3, Q8NI35; [2] | HTRA2, O43464; [2] | PDZD2_2, O15018; [2] | SNTG2, Q9NY99; [2] | GRIP1_5, Q9Y3R0; [2] | HTRA1, Q92743; [2] | IL16_3, Q14005; [2] | APBA3_1, O96018; [2] | GRIP2_7, Q9C0E4; [2] | PDZD7_3, Q9H5P4; [2] | MAGI2_2, Q86UL8; [2] | GORASP1, Q9BQQ3; [2]
